# Patent US20250043019A1 (Janssen / Centocor, published 2025)
# T1: human CD79b on the cell surface (human, UniProt P40259 29-229)
# T1 sequence: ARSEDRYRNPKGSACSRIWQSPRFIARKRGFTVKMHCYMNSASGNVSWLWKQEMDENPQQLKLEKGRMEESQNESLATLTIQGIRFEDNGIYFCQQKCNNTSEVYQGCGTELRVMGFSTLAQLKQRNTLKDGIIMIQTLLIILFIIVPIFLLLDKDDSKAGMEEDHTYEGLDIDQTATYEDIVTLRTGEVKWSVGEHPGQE
# T2: human CD20 on the cell surface (human, UniProt P11836 1-297)
# T2 sequence (looked up): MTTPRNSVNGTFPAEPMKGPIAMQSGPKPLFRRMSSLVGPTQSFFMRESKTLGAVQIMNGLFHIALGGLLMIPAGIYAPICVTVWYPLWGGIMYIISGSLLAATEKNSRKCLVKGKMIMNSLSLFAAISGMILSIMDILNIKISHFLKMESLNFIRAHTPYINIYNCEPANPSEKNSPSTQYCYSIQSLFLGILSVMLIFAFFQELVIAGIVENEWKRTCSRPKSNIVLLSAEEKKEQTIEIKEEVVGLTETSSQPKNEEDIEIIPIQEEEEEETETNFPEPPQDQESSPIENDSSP
# T3: recombinant extracellular domain of human CD79b, short isoform (human, UniProt P40259 29-159)
# T3 chain: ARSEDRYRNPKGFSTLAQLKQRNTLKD
# T4: recombinant extracellular domain of human CD79b, long isoform (human, UniProt P40259 29-159)
# T4 construct: also called hu CD79b long
# T4 sequence: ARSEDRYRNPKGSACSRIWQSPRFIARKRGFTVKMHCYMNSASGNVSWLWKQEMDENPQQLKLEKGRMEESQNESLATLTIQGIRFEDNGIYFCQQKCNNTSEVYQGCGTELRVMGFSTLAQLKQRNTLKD
# What was measured:
# [1] = molecular target: T1, human CD79b on the cell surface; experiment: cell-based or functional assay
# [2] = molecular target: T1, human CD79b on the cell surface; experiment: cell-based or functional assay; remark: listed apart in the source
# [3] = molecular target: T2, human CD20 on the cell surface; experiment: cell-based or functional assay
# [4] = molecular target: T1, human CD79b on the cell surface; experiment: flow cytometry, HBL-1 cells, 1 h 37 C
# Procedure: (§1) All cells were washed with BD stain buffer (BD Biosciences; Cat #554657), centrifuged at 1200 RPM for 3 minutes, with supernatant discarded. Cells were then stained for 20 minutes at 4° C. with BD stain buffer containing AlexaFluor 647 labeled anti-human IgG secondary antibody (Jackson Immuno; Cat #109-606-098) at a 1:200 dilution along with Aqua Fixable Live/Dead stain (Invitrogen; Cat #L34957) at a 1:400 dilution. All cells were washed with BD stain buffer (BD Biosciences; Cat #554657), centrifuged at 1200 RPM for 3 mins, with supernatant discarded. Cells were analyzed using Intellicyt (Sartorius) flow cytometer and mean fluorescent intensity (MFI) was generated using Forcyt software (Sartorius). MFI was graphed and EC50 values generated using GraphPad PRISM v.8. Dose response curves were generated by transforming the x axis values using the formula […]. Data was then graphed using non-linear regression curve fit analysis “log(agonist) vs. response-variable slope (four parameter)”.
# [5] = molecular target: T1, human CD79b on the cell surface; experiment: flow cytometry, HBL-1 cells, 1 h 37 C; control row of Table 10, same value as Table 8
# Procedure: as §1
# [6] = molecular target: T1, human CD79b on the cell surface; experiment: cell-based or functional assay; remark: listed apart in the source
# [7] = molecular target: T1, human CD79b on the cell surface; experiment: flow cytometry, Carnaval cells, 1 h 37 C
# Procedure: as §1
# [8] = molecular target: T1, human CD79b on the cell surface; experiment: cell-based or functional assay; remark: listed apart in the source
# [9] = molecular target: T1, human CD79b on the cell surface; experiment: cell-based or functional assay; remark: listed apart in the source
# [10] = molecular target: T1, human CD79b on the cell surface; experiment: cell-based or functional assay; remark: listed apart in the source
# [11] = molecular target: T3, recombinant extracellular domain of …; experiment: SPR Biacore 8k, antibody captured by anti-Fc, 25 C
# Procedure: (§2) General Protocol for SPR Affinity Assessment: Affinity assessment of the bispecific trispecific constructs against human CD79b were measure using recombinantly expressed extracellular domain of CD79b short and long isoforms (CD9W7.001 and CD9W8.001, respectively) by Surface Plasmon Resonance (SPR) using a Biacore 8k SPR system (Biacore) at 25° C. in HBSP+ buffer. Cross-reactivity of the same antibody panel was also assessed against cyno and mouse antigens (CD9W1.001 and CD9W105.001, respectively). Briefly, a C1 sensor chip was immobilized with anti-human Fc (target immobilization levels of >400 RU) using vendor recommended amino coupling protocol. […] The association and dissociation phases were measured for 2 or 3 minutes and 30 minutes, respectively.
# (§3) The raw binding sensorgrams were processed using Biacore Insight software (Biacore) by double-referencing and the processed sensorgrams were analyzed for cross-reactivity and fitted to a 1:1 Langmuir model to obtain on-rates, off-rates and affinities.
# [12] = molecular target: T4, recombinant extracellular domain of …; experiment: SPR Biacore 8k, antibody captured by anti-Fc, 25 C
# Procedure: as §2, §3
# [13] = molecular target: T1, human CD79b on the cell surface; experiment: cell-based or functional assay; remark: listed apart in the source
# [14] = molecular target: T1, human CD79b on the cell surface; experiment: flow cytometry, Carnaval cells, 1 h 37 C; control row of Table 10, same value as Table 8
# Procedure: as §1
# [15] = molecular target: T5, cynomolgus monkey CD79b antigen (cynomolgus monkey); experiment: SPR Biacore 8k, cyno CD79b injected up to 3000 nM
# T5 construct: also called cyno CD79b; CD9W1.001
# Procedure: as §2, §3
# [16] = molecular target: T1, human CD79b on the cell surface; experiment: cell-based or functional assay; remark: listed apart in the source
binder,measurement,setting,value
C923B169 CD79bxCD20xCD3 trispecific antibody (CD9B374 Fab x C20B648 LH scFv x CD3B2030 N106A LH scFv) (other) heavy: QVQLQESGPGLVKPSETLSLTCSVSGASISSFYWSWIRQPADEGLEWIGRISPSGKTNYIPSLKSRIIMSLDASKNQFSLRLNSVTAADTAMYYCARGEYSGTYSYSFDVWGQGTMVTVSSASTKGPSVFPLAPSSKSTSGGTAALGCLVKDYFPEPVTVSWNSGALTSGVHTFPAVLQSSGLYSLSSVVTVPSSSLGTQTYICNVNHKPSNTKVDKKVEPKSCDKTHTCPPCPAPEAAGGPSVFLFPPKPKDTLMISRTPEVTCVVVSVSHEDPEVKFNWYVDGVEVHNAKTKPREEQYNSTYRVVSVLTVLHQDWLNGKEYKCKVSNKALPAPIEKTISKAKGQPREPQVYTLPPSREEMTKNQVSLSCAVKGFYPSDIAVEWESNGQPENNYKTTPPVLDSDGSFFLVSKLTVDKSRWQQGNVFSCSVMHEALHNRFTQKSLSLSPGK light: DIVMTQSPLSLSVTPGEPASISCRSSESLLDSEDGNTYLDWFLQKPGQSPQLLIYTLSYRASGVPDRFSGSGSDTDFTLHISSLEAEDVGLYYCMQRMEFPLTFGQGTKVEIKRTVAAPSVFIFPPSDEQLKSGTASVVCLLNNFYPREAKVQWKVDNALQSGNSQESVTEQDSKDSTYSLSSTLTLSKADYEKHKVYACEVTHQGLSSPVTKSFNRGEC EIVLTQSPATLSASPGERVTLSCSASSSVSYMNWYQQKPGQAPRRWIYDSSKLASGVPARFSGSGSGRDYTLTISSLEPEDFAVYYCQQWSRNPPTFGGGTKVEIKGGSEGKSSGSGSESKSTGGSQVQLVQSGAEVKKPGSSVKVSCKASGYTFTRSTMHWVKQAPGQGLEWIGYINPSSAYTNYNQKFQGRVTLTADKSTSTAYMELSSLRSEDTAVYYCASPQVHYDYAGFPYWGQGTLVTVSSEPKSSDKTHTCPPCPAPEAAGGPSVFLFPPKPKDTLMISRTPEVTCVVVSVSHEDPEVKFNWYVDGVEVHNAKTKPREEQYNSTYRVVSVLTVLHQDWLNGKEYKCKVSNKALPAPIEKTISKAKGQPREPQVYTLPPSREEMTKNQVSLWCLVKGFYPSDIAVEWESNGQPENNYKTTPPVLDSDGSFFLYSKLTVDKSRWQQGNVFSCSVMHEALHNHYTQKSLSLSPGKGGGGSGGGGSGGGGSGGGGSEIVLTQSPATLSLSPGERATLSCRASLSVSSMHWYQQKPGQAPRLLIYATSNLASGIPARFSGSGSGTDFTLTISSLEPEDFAVYYCQQWIFNPPTFGGGTKVEIKGGSEGKSSGSGSESKSTGGSQVQLVQSGAEVKKPGSSVKVSCKASGYTFSSYNMHWVRQAPGQGLEWMGAIYPGAGDTSYAQKFQGRVTITADESTSTAYMELSSLRSEDTAVYYCARSNYYGSSGWYFDVWGKGTTVTVSS,"EC50, decrease of IL-10 secretion by CD79b mutant OCI-Ly10 cells (MSD assay)",[1],15.4 nM
same,"EC50, long-term Incucyte cytotoxicity, K562 CD79b",[2],1.04 nM
same,"EC50, long-term Incucyte cytotoxicity, K562 CD20",[3],4.08 nM
"79C3B646 CD79bxCD3 bispecific antibody (bispecific antibody, human IgG1, lambda, L234A L235A, IgG1 bispecific; CD79b Fab arm plus CD3 scFv-Fc arm; also called 79C3B646 bsAb; CD9B330-N31S x CD3B2030-N106A) heavy: QVQLQQSGPGLVKPSQTLSLTCAISGDSVSSNSATWNWIRQSPSRGLEWLGRTYYRSKWYNDYTVSVKSRITINPDTSKNQFSLQLNSVTPEDTAVYYCTRVDIAFDYWGQGTLVTVSSASTKGPSVFPLAPSSKSTSGGTAALGCLVKDYFPEPVTVSWNSGALTSGVHTFPAVLQSSGLYSLSSVVTVPSSSLGTQTYICNVNHKPSNTKVDKKVEPKSCDKTHTCPPCPAPEAAGGPSVFLFPPKPKDTLMISRTPEVTCVVVSVSHEDPEVKFNWYVDGVEVHNAKTKPREEQYNSTYRVVSVLTVLHQDWLNGKEYKCKVSNKALPAPIEKTISKAKGQPREPQVYTLPPSREEMTKNQVSLSCAVKGFYPSDIAVEWESNGQPENNYKTTPPVLDSDGSFFLVSKLTVDKSRWQQGNVFSCSVMHEALHNRFTQKSLSLSPGK light: QTVVTQPPSVSEAPRQRVTISCSGSSSNIGNHGVNWYQQLPGKAPKLLIYNDDLLPSGVSDRFSGSTSGTSGSLAISGLQSEDEADYYCAAWDDSLNGVVFGGGTKLTVLGQPKAAPSVTLFPPSSEELQANKATLVCLISDFYPGAVTVAWKADSSPVKAGVETTTPSKQSNNKYAASSYLSLTPEQWKSHRSYSCQVTHEGSTVEKTVAPTECS EIVLTQSPATLSASPGERVTLSCSASSSVSYMNWYQQKPGQAPRRWIYDSSKLASGVPARFSGSGSGRDYTLTISSLEPEDFAVYYCQQWSRNPPTFGGGTKVEIKGGSEGKSSGSGSESKSTGGSQVQLVQSGAEVKKPGSSVKVSCKASGYTFTRSTMHWVKQAPGQGLEWIGYINPSSAYTNYNQKFQGRVTLTADKSTSTAYMELSSLRSEDTAVYYCASPQVHYDYAGFPYWGQGTLVTVSSEPKSSDKTHTCPPCPAPEAAGGPSVFLFPPKPKDTLMISRTPEVTCVVVSVSHEDPEVKFNWYVDGVEVHNAKTKPREEQYNSTYRVVSVLTVLHQDWLNGKEYKCKVSNKALPAPIEKTISKAKGQPREPQVYTLPPSREEMTKNQVSLWCLVKGFYPSDIAVEWESNGQPENNYKTTPPVLDSDGSFFLYSKLTVDKSRWQQGNVFSCSVMHEALHNHYTQKSLSLSPGK",EC50,[4],97 nM
same,EC50,[5],97 nM
same,"IC50, T-cell killing of HBL-1 (Incucyte)",[6],0.257 nM
same,EC50,[7],44 nM
same,"IC50, CARNAVAL killing, 72 h (FACS)",[8],0.29 nM
same,"IC50, HBL-1 killing, 72 h (FACS)",[8],0.73 nM
same,"IC50, OCI-LY10 killing, 72 h (FACS)",[8],> 100 nM
same,"Cmax (maximum cytotoxicity), donor 1",[9],9%
same,"Cmax (maximum cytotoxicity), donor 2",[9],14%
same,"Cmax (maximum cytotoxicity), donor 3",[9],35%
same,"EC50, autologous B-cell depletion, donor 1",[9],40 nM
same,"EC50, autologous B-cell depletion, donor 2",[9],6 nM
same,"EC50, autologous B-cell depletion, donor 3",[9],8 nM
same,"IC50, CARNAVAL killing (Incucyte)",[10],1.39 nM
same,Kd,[11],0.58 nM
same,Kd,[12],0.022 nM
same,"IC50, T-cell killing of OCI-Ly10 (Incucyte)",[13],18.3 nM
same,EC50,[14],44 nM
same,Kd,[15],> 3000 nM
same,"IC50, Daudi killing (Incucyte)",[16],0.597 nM
